T1: FcγRIIb (human, UniProt P31994 43-217)
T1 construct: extracellular domain; also called FcgRIIb; 2b
T1 sequence (looked up): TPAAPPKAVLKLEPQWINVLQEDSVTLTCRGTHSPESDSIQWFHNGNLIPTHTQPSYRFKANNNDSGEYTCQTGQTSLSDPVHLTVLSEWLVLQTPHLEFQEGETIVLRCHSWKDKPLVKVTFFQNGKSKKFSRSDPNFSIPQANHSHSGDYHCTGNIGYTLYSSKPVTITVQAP

T2: FcγRIIa R (human, UniProt P12318 34-217)
T2 construct: extracellular domain; also called FcgRIIa R type; 2aR
T2 sequence (looked up): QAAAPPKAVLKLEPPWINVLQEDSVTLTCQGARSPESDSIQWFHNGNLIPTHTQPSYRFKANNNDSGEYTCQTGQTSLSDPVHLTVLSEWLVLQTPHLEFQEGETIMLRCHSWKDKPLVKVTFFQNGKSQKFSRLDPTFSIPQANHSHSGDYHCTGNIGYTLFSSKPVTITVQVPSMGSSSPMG

B1: GpH7-A5/GpH7-B3 variant P271_15Y/GpL16-k0 (antibody, human IgG1, kappa)
heavy 1: not shown
heavy 2: not shown
light: DIVMTQSPLSLPVTPGEPASISCQASESLVHSNRNTYLHWYLQKPGQSPQLLIYKVSNRFSGVPDRFSGSGSGTDFTLKISRVEAEDVGVYYCSQNTHVPPTFGQGTKVEIERTVAAPSVFIFPPSDEQLKSGTASVVCLLNNFYPREAKVQWKVDNALQSGNSQESVTEQDSKDSTYSLSSTLTLSKADYEKHKVYACEVTHQGLSSPVTKSFNRGEC
notes: heterodimerized antibody, mutation in the GpH7-B3 chain only; also called He Ab
B2: GpH7-A5/GpH7-B3 variant S298_01G/GpL16-k0 (antibody, human IgG1, kappa)
heavy 1: not shown
heavy 2: not shown
light: B1 light
notes: as for B1
B3: GpH7-A5/GpH7-B3 variant Q295_12R/GpL16-k0 (antibody, human IgG1, kappa)
heavy 1: not shown
heavy 2: not shown
light: B1 light
notes: as for B1
B4: GpH7-A5/GpH7-B3 variant Q295_15Y/GpL16-k0 (antibody, human IgG1, kappa)
heavy 1: not shown
heavy 2: not shown
light: B1 light
notes: as for B1
B5: GpH7-A5/GpH7-B3 variant Q295_05P/GpL16-k0 (antibody, human IgG1, kappa)
heavy 1: not shown
heavy 2: not shown
light: B1 light
notes: as for B1
B6: GpH7-A5/GpH7-B3 variant Q295_11K/GpL16-k0 (antibody, human IgG1, kappa)
heavy 1: not shown
heavy 2: not shown
light: B1 light
notes: as for B1
B7: GpH7-A5/GpH7-B3 variant Q295_13S/GpL16-k0 (antibody, human IgG1, kappa)
heavy 1: not shown
heavy 2: not shown
light: B1 light
notes: as for B1
B8: GpH7-A5/GpH7-B3 variant Q295_16H/GpL16-k0 (antibody, human IgG1, kappa)
heavy 1: not shown
heavy 2: not shown
light: B1 light
notes: as for B1
B9: GpH7-A5/GpH7-B3 variant Q295_01G/GpL16-k0 (antibody, human IgG1, kappa)
heavy 1: not shown
heavy 2: not shown
light: B1 light
notes: as for B1
B10: GpH7-A5/GpH7-B3 variant Q295_04F/GpL16-k0 (antibody, human IgG1, kappa)
heavy 1: not shown
heavy 2: not shown
light: B1 light
notes: as for B1
B11: GpH7-A5/GpH7-B3 variant Q295_20W/GpL16-k0 (antibody, human IgG1, kappa)
heavy 1: not shown
heavy 2: not shown
light: B1 light
notes: as for B1
B12: GpH7-A5/GpH7-B3 variant Q295_18N/GpL16-k0 (antibody, human IgG1, kappa)
heavy 1: not shown
heavy 2: not shown
light: B1 light
notes: as for B1
B13: GpH7-A5/GpH7-B3 variant Q295_03V/GpL16-k0 (antibody, human IgG1, kappa)
heavy 1: not shown
heavy 2: not shown
light: B1 light
notes: as for B1
B14: GpH7-A5/GpH7-B3 variant P271_20W/GpL16-k0 (antibody, human IgG1, kappa)
heavy 1: not shown
heavy 2: not shown
light: B1 light
notes: as for B1

Tests used:
FcγRIIb = target: T1, FcγRIIb; experiment: SPR (Biacore), antibody captured, FcγR as analyte; relative binding
FcγRIIa R [1] = target: T2, FcγRIIa R; experiment: as above
FcγRIIa R [2] = target: T2, FcγRIIa R; experiment: SPR; He/Con_2aR divided by He/Con_2b (FcγRIIb as reference)
Procedure: The heterodimerized antibodies He Abs in which one of the H chains was introduced with an alteration were assayed for their binding activities to each activating FcγR and inhibitory FcγR according to the method described in Example 4. […] The activating FcγRs in FIGS. 26, 27, 28, and 29 are FcγRIa, FcγRIIa (R), FcγRIIa (H), and FcγRIIIa, respectively.
Analysis of interaction between objective antibody and the FcγR was carried out using Biacore T100 (GE Healthcare). HBS-EP+ (GE Healthcare) was used as the running buffer, and the measurement temperature was set to 25° C. Chips produced by immobilizing the antigen peptide by the amine coupling method to a Series S Sencor Chip CM5 (GE Healthcare), or alternatively, chips produced by allowing preliminarily biotinylated antigen peptides to interact with and immobilize onto a Series S Sensor Chip SA (certified) (GE Healthcare) were used. Antibodies of interest were captured onto an antigen peptide-immobilized chip, and allowed to interact to each FcγR diluted with running buffer. To regenerate and repeatedly use the chip, the antibodies captured on the chip were washed off by reacting 10 mM glycine-HCl, pH 1.5.

| Binder | He/Con_2b (IIb binding) (FcγRIIb) | He/Con_2aR (IIaR binding) (FcγRIIa R [1]) | IIaR/IIb (He_2aR/2b) (FcγRIIa R [2]) [ratio] |
| --- | --- | --- | --- |
| B1 | 52.3 % of GpH7-A5/GpH7-B3/GpL16-k0 (=100) | 70.7 % of GpH7-A5/GpH7-B3/GpL16-k0 (=100) | 1.35 |
| B2 | 80.1 % of GpH7-A5/GpH7-B3/GpL16-k0 (=100) | 98.8 % of GpH7-A5/GpH7-B3/GpL16-k0 (=100) | 1.23 |
| B3 | 65.2 % of GpH7-A5/GpH7-B3/GpL16-k0 (=100) | 83 % of GpH7-A5/GpH7-B3/GpL16-k0 (=100) | 1.27 |
| B4 | 65.4 % of GpH7-A5/GpH7-B3/GpL16-k0 (=100) | 82.8 % of GpH7-A5/GpH7-B3/GpL16-k0 (=100) | 1.27 |
| B5 | 67.5 % of GpH7-A5/GpH7-B3/GpL16-k0 (=100) | 87.4 % of GpH7-A5/GpH7-B3/GpL16-k0 (=100) | 1.3 |
| B6 | 70.4 % of GpH7-A5/GpH7-B3/GpL16-k0 (=100) | 88.9 % of GpH7-A5/GpH7-B3/GpL16-k0 (=100) | 1.26 |
| B7 | 56.9 % of GpH7-A5/GpH7-B3/GpL16-k0 (=100) | 73.7 % of GpH7-A5/GpH7-B3/GpL16-k0 (=100) | 1.3 |
| B8 | 62.7 % of GpH7-A5/GpH7-B3/GpL16-k0 (=100) | 81.3 % of GpH7-A5/GpH7-B3/GpL16-k0 (=100) | 1.3 |
| B9 | 46 % of GpH7-A5/GpH7-B3/GpL16-k0 (=100) | 60.9 % of GpH7-A5/GpH7-B3/GpL16-k0 (=100) | 1.32 |
| B10 | 64.7 % of GpH7-A5/GpH7-B3/GpL16-k0 (=100) | 83.6 % of GpH7-A5/GpH7-B3/GpL16-k0 (=100) | 1.29 |
| B11 | 44.4 % of GpH7-A5/GpH7-B3/GpL16-k0 (=100) | 60 % of GpH7-A5/GpH7-B3/GpL16-k0 (=100) | 1.35 |
| B12 | 64.9 % of GpH7-A5/GpH7-B3/GpL16-k0 (=100) | 82.4 % of GpH7-A5/GpH7-B3/GpL16-k0 (=100) | 1.27 |
| B13 | 75.7 % of GpH7-A5/GpH7-B3/GpL16-k0 (=100) | 91.2 % of GpH7-A5/GpH7-B3/GpL16-k0 (=100) | 1.2 |
| B14 | 58.1 % of GpH7-A5/GpH7-B3/GpL16-k0 (=100) | 77.3 % of GpH7-A5/GpH7-B3/GpL16-k0 (=100) | 1.33 |

Reference: patent US20180155451A1 (published 2018)
